From US20050281829A1, “Fc chimeric proteins with anti-HIV drugs” (priority 2003, published 2005)
Where two headings read alike, the source gives them in different places.

How the values were obtained:
[1] = neonatal rats, oral (gavage); FIG. 9
From the text: The blood was allowed to clot and the serum was separated and frozen until analysis.

[2] = monkeys, single intravenous bolus; FIG. 8A/8B
Method: The animals were sedated with ketamine (≈10 mg/kg) prior to dosing. The hair from the dosing area were clipped, cleansed with alcohol, and air-dried prior to delivering the dose. This was followed by a 3 mL saline flush. Samples were obtained from the femoral vein at indicated times. The blood was allowed to clot and the serum was separated and frozen until analysis.

human serum albumin = human serum albumin (Homo sapiens, UniProt P02768); conditions: SPR, FIG. 11
Method: A BIACORE 3000 instrument (Biacore AB Uppsala, Sweden) was used and all binding interactions were performed at 25° C. A carboxymethyl-modified dextran (CM5) sensor chip (Biacore. AB Uppsala, Sweden) was used for analysis. HAS (Albuminar) (Aventis Bridgewater, N.J.) was diluted to 100 μg/mL in 10 mM sodium acetate (pH 4.5) and immobilized to one flowcell of the sensor chip, using amine coupling as described. […] Final immobilization level was approximately 8500 Resonance Units (RU). A “mock-immobilized” surface using a separate flowcell was created using the same procedure in the absence of HSA and served as a reference for the binding studies.
Proteins or peptides (analyte) were diluted in HBS-N buffer (10 mM HEPES, pH 7.4; 150 mM NaCl) and injected over the HSA and reference surfaces for 3 minutes at a rate of 20 μL/min. After a 35 second dissociation phase, the surface was regenerated by a 30 second pulse of 10 mM glycine (pH 2.0) at a flow rate of 60 μL/min.
The sensorgrams (Response Units versus time) generated for the mock-coated flowcell were automatically subtracted from the HSA-coated sensorgrams. Response at equilibrium (Req) was measured 30 seconds before the end of the injection phase and divided by the molecular weight of the analyte (Frostell-Karlsson et al. 2000, J. Med. Chem. 43:1986).

Row | Substance | serum half life [1] | serum half life [2] | binding to human serum albumin (in words) (human serum albumin) | binding to human serum albumin relative to binding of either FcT20 or T20Fc (human serum albumin; 25° C., Req divided by molecular weight)
1 | Fc-T20: Recombinant chimeric protein: human Fc linked via a glycine peptide linker to T20 at the Fc C terminus (SEQ ID NO:4) | 23 h | greater than 40 hours | reduced binding | 
2 | enfuvirtide |  |  |  | more than 3 fold
